Data: the DeepSol protein solubility set

assay: soluble on expression in E. coli; label from the status in PepcDB or PDB records

Question: Which “soluble on expression in E. coli” value does the source give for “MCGISGEFRFDNQAADLAAVERITHHLAPRGPDAWGFHAQGPIALGHRRLKIMDLAEASGQPMIDPDLGLAMVFNGAIYNYPELRGELESLGYRFFSGGDTEVLLKGYHAWGADLLPRLNGMFAFAVWERDRQRLFLARDRLGIKPLYYSLDRSRLRFASSLPALLKGGDIASDLDPQALNFYLNFHAVVPAPHTLLEGVKKLPPATWMSVDLDGSCEQRTWWTLDYGPRPDERELTLDDWQERVLDGLREAVAIRQRAAREVGVLLSGGVDSSLLVGLLHEAGVDNLLTFSIGFEDAGGERGDEFQYSDLIAERYHTRHHRLRIGEHEVIEQLPAAFRAMSEPMVSHDCIAFYLLAREVSKHCKVVQSGQGADELFAGYHWYPKVDGADDAFAAYRAAFFDRDHEEYLATVGERFRVEDVAGRFVRDHFASPGAEAAVDKALRLDSTIMLVDDPVKRVDNMTMAWGLEARVPFLDYRLAELSARIPARFKLGDGGKQVLKGAARKVIPSEVIDRPKGYFPVPGLKHLQGRTREWVRELLLDPSQDRGLFQPAIFDRLLSDPDGDLTPLRG” here?
Answer: The value was “not soluble”.

Question: For “MCGIVGYIGYDNAKELLLKGLEKLEYRGYDSAGIAVVNDDNTTVFKEKGRIAELRKVADSSDFDGPVGIGHTRWATHGVPNHENSHPHQSSNGRFTLVHNGVIENYEELKGEYLQGVSFISETDTEVIVQLVEYFSNQGLSTEEAFTKVVSLLHGSYALGLLDAEDKDTIYVAKNKSPLLLGVGEGFNVIASDALAMLQVTSEYKEIHDHEIVIVKKDEVIIKDADGNVVERDSYIAEIDASDAEKGVYAHYMLKEIHEQPAVMRRIIQEYQDAEGNLKIDQDIINDVKEADRIYVIAAGTSYHAGLVGKEFLEKWAGVPTEVHVASEFVYNMPLLSEKPLFVYISQSGETADSRAVLVETNKLGHKSLTITNVAGSTLSREADHTLLLHAGPEIAVASTKAYTAQIAVLSILSQIVAKEHGREADIDLLRELAKVTTAIEAIVDDAPIMEQIATDFLETTRNAFFIGRTIDYNVSLEGALKLKEISYIQAEGFAGGELKHGTIALIEEGTPVVGLATQEKVNLSIRGNVKEVVARGAHPCIISMEGLEKEGDTYVIPHVHELLTPLVSVVALQLISYYAALHRDLDVDKPRNLAKSVTVE”, which “soluble on expression in E. coli” value is on record?
Answer: Its value is “not soluble”.

Question: Which “soluble on expression in E. coli” value does the source give for “MCIVALAWQVFDQIPLCLLSNRDEFYARPTTQLHLWENTPIIAGRDLQSGGTWMGITASGRWAVVTNFRDGHDKKIYDTSRGTLVEDFLLSDLAPIRFAKQLEQRQQHYAGFNLFMGDQSQAVYMSNRGEAPQVLAKGVYVVSNGLMSEHWEKTAHLRKRFTQEFVPMLQAEIAEHDLEYTAWDILEDERKVIPELLPSTGIHPDMEELLSSTFIQSPVYGTRCSNFLRLMKRRWIWAEKTQWGDHAGEMMRMDIQIQLEHHHHHH” here?
Answer: The value was “not soluble”.

Question: Which “soluble on expression in E. coli” value does the source give for “MCLAIPGKVVEIKGNVGIVDFGGIRREVRLDLLSDVKVGDYVIVHTGFAIEKLDERRAREILEAWEEVFSVIGGE” here?
Answer: Its value is “not soluble”.

Question: For “MCLIVFAWRPGHALPLIVAANRDEFYARPTQPLAAWEDAPGVHAGRDLEAGGTWLGVGPQGRFAALTNIRDPGQAQGPRSRGELVAAFLQGELGVGAYLDQVASRSGQYSGFNLLVGDGQRLGYLHAREATPRLLKAGVYGLSNAGLDTPWPKLVKARDGLENLLDTPEPHRLLALLADNEPAADGDLPETGVGLATEKLLSSVFIASQNYGTRASTVLIVDDQGQRRLVERSFGPFGGHLGEIELLVLEHHHHHH”, which “soluble on expression in E. coli” value is on record?
Answer: Its value is “soluble”.

Question: With “MCLVNEFVSNSNMKPALNVSGDEKELILQLRRYLEEKLTYLLDQNGTVSIGVSGGSMPRVFSKAILSLPQEQLNWKRIRIFMVDERNVDLDSEESNQGEYLRLFPNELRDVFVPMQIFKDPCLTAQHYEISLRKYLLPEQLNNTARFDILFLGVGPDGHTASIFPGKERLEKITELNWVSVITDSPKPPPSRITLTLQTLQHAKNVAFIICGKQKAEIVRGICDRDQKYPAAQARPFNDKLTLFLDEDAATGVPDRDSSDSDSPPPFDG” as the sequence, how does the “soluble on expression in E. coli” value read?
Answer: The value was “not soluble”.

Question: Which “soluble on expression in E. coli” value does the source give for “MCMDLESLLAIKHFRADQAQLALKRQQQAAVAAAAQRQAQGRLDDCRLWAGQLENRLYAELCRRIVKTRDIDEVLQRVGHARDRQASLALQLDDAVRRHEHEIQLLAQQREQHRECFQAQQRIAELVRLQQVEAAALRESLEDREIQEAIELSARGRDDASRAGDGLARLLEHHHHHH” here?
Answer: The value was “not soluble”.

Question: Which “soluble on expression in E. coli” value does the source give for “MCMYEADVRINGTLIWYYFICKREVWLISHGITADQEDENIEIGRFIHENAYSREKKEIDFDNFKVDVADSIDGKIIVQEVKKSSKFKKSARMQLLFYIYEIKKSGIDARGILLFPEERKREEVVLDEASQKELDSVIKDIFKIVNLEKPPIPEKCKYCRNCAYSELCWA” here?
Answer: Its value is “not soluble”.

Question: With “MCSLSAIMLLPTKLKPAYSDKRSNSSSSSSLFFNNRRSKKKNQSIVPVARLFGPAIFESSKLKVLFLGVDEKKHPSTLPRTYTLTHSDITAKLTLAISQSINNSQLQGWANRLYRDEVVAEWKKVKGKMSLHVHCHISGGHFLLDLFAKFRYFIFCKELPVVLKAFVHGDGNLLNNYPELQEALVWVYFHSNVNEFNKVECWGPLWEAVSPDGHKTETLPEARCADECSCCFPTVSSIPWSHSLSNEGVNGYSGTQTEGIATPNPEKL” as the sequence, how does the “soluble on expression in E. coli” value read?
Answer: The value was “soluble”.

Question: With “MCTFCSIINRELEGYFVYEDEKFAAILDKYPVSLGHTLVIPKKHFENYLEADEDTLAELAKVVKLVSLGIKDAVKADGLRLLTNIGRSAGQVIFHLHVHIIPTWEGDYPDIFKSFKPRKEQEKEYYELLQKIIRESIENLKRKIGDYKWG” as the sequence, how does the “soluble on expression in E. coli” value read?
Answer: Its value is “soluble”.

Question: With “MCVHTRKPDGLHPKPVSHCPVIDTGQSEWRSFTFTTICMGFRPRQAYRQPSPIANETENTMSNSNIQQEAQDIHDQLPESVDASPEDIEERLTTLVDDYRVPLDEAQRSVVSTYLSDSDVDRDDVSSENENQQVDLEEITEAEQWVDITAKVADLWEPRSDSIAQVGLLGDETGTIKFTKWAKSDLEALTEGQVYRLGNVVTDEYQGQYSVKLNRTTTIEALDQDIEVGDDTTDAEGALVDIQSGSGLIKRCPEDDCTRVLQNGRCSEHGEGEGEFDLRIKGVIDNGDTVQEVIFDKEATEQVADITLAQAQEMAMDALDTSVVADEIREVTLGRYYRVQGPELGRYLLVNEFEQLAEMHDPEQLLITARSI” as the sequence, how does the “soluble on expression in E. coli” value read?
Answer: Its value is “soluble”.

Question: Which “soluble on expression in E. coli” value does the source give for “MCVNFIPPSRGQLREWLGCDPGDGQWPDEAWQDYPAPILTRDGLRFASYGFIPKRHQPAGVRLSTMNARVETIGQLRSYRDAWRNCQLCLVPMQAFYEPCYESGRAVRTKISMADGAPFAVAGLWREWREADGSISLAFTQITIHADGHAVMGRMHRPGDEKRSLAIIPAALYQAWLHCRNPEQARAFLQLFSAEAMRAEGEIADPPRQGSLFDLEHHHHHH” here?
Answer: The value was “not soluble”.

Question: For “MCWYGDPGATYRYSGVSHQPSPWHEVLADLRTRIEAFSGHVFNAVLCNRYRSGRDSMGWHADDEPELGERPFIASLSLGAERLFRIRHRGTGRTLDVPLRDGDLLLMGGELQSHWRHCVPRTARPCGERINLTFRRVVPRSLEHHHHHH”, which “soluble on expression in E. coli” value is on record?
Answer: Its value is “not soluble”.

Question: With “MDAEPKRKFGVVVVGVGRAGSVRLRDLKDPRSAAFLNLIGFVSRRELGSLDEVRQISLEDALRSQEIDVAYICSESSSHEDYIRQFLQAGKHVLVEYPMTLSFAAAQELWELAAQKGRVLHEEHVELLMEEFEFLRREVLGKELLKGSLRFTASPLEEERFGFPAFSGISRLTWLVSLFGELSLISATLEERKEDQYMKMTVQLETQNKGLLSWIEEKGPGLKRNRYVNFQFTSGSLEEVPSVGVNKNIFLKDQDIFVQKLLDQVSAEDLAAEKKRIMHCLGLASDIQKLCHQKK” as the sequence, how does the “soluble on expression in E. coli” value read?
Answer: The value was “soluble”.

Question: Which “soluble on expression in E. coli” value does the source give for “MDALIMAGGKGTRLKENVEKPILNICEKPMIDYVIDSLLNSKIEKIYVAVSIHTPKTKEYLEKKYRLDRNYNPKIDIICTSGTNYVDDLNECMEFFKEPFLILSSDIPTIKPKVINSIIQDYLFVNNSCNRIESFCVVTKDDDYVGTPSINMGGYIPLGINILTPKHGEQTEILHVIKDIIVNVNTLSDKKLVETLINKVVELEHHHHHH” here?
Answer: The value was “soluble”.

Question: For “MDALQAYGGSDSEHSDDDASMDQVAKGKSSTLLERAIVTAPDVESKSAIRQVAIVDPKTKEIKSNPKFDQLFKPESGPVNHFKSEQQRSQKNTLTGFVEPAHLNEFHFNRQIRSFDTLGYAQNPTAESGTTHFVGDVKKAEAEKGVSLFESKKTGGEKRKRVRNDDSADIDGYTGPWSRFIDEKTVAKPTPELQKQMDEIVKKRQEKSRRFKKEKEDSEQMAEESSTLHLKEAEDYQGRSFLVPPSFTGVNLREDYVPERCFVPKKLVHTYRGHNKGVNFLQWFPKSAHLFLSCSMDTKIKLWEVYDRQRVVRTYAGHKLPVREVAFNNEGTEFLSASFDRYVKLWDTETGQVKQRFHTGHVPYCLKYHPDDDKNHMFLVGMQNKKIIQWDSRSGEIVQEYDRHLQAVNSITFFDKNRRFASTSDDKSVRIWEWEIPVDTKLIQNVGLHAIPTMTKSPNDKWVVGQCMDNRIVLFQLVDDKLRFSKKKAFRGHNAAGYACNIDFSPDQSFLISGDADGKLFIWDWRTHKIVGKWKAHDSTCIAALWHPHEKSRMITAGWDGLIKMWN”, which “soluble on expression in E. coli” value is on record?
Answer: The value was “soluble”.

Question: With “MDALTDSGSDPLLSAALGSPIHHAILSMDDEVDGNCDDVDDISPESHHDNHFIDFTDDLVVQTERNLSKKGRTSNRNARQGYDNYATLTNLQPLPPISTVTSKSTKVQRPSPSPNFYFPTSSNSSYDMKYEEEEDDCEGITHSSSSPSDFSNHGTDLNHPFSASSFDSFDVTTVSTTATSTIMNSTDKFIARIQEADSTTKSPKGTSPAALMHGHCEEDFDDGEELNTKELALQIAAELKRYSIPQAIFAERVLCRSQGTLSDLLRNPKPWSKLKSGRETFRRMAKWLEEPEFQRMSALRLAACKRKEEHTTPNSPQMVVPKKTRLVFSDIQRRTLQAIFRETKRPSREMQITISQQLNLDPTTVANFFMNARRRGHDLKQETSESEERSEEPSIHFEHSASSSSASSSSSSSMQLDNYICDINTINILEEPSPEPREIKYSMQLLENELDFPANILEP” as the sequence, how does the “soluble on expression in E. coli” value read?
Answer: Its value is “not soluble”.

Question: Which “soluble on expression in E. coli” value does the source give for “MDALVSTKANSIAYQRSTVIIPAYNEEKRLMPVLYELCEYIRSNSLEWKVMVSIDGDDGTESNVKIMMQEYSFLSYSKGKGRGGKGAAIKRAITSATGEFVILMDADGSVPLKEIVKALDLTNYYDLIIFDRYSNRGNRIPFIRRFPSRGFNKLVRIFLGLKINDTQCGYKIIKREYAQRAFNKITISNAFFDVALLYYLKKERAKYIEIPVEYNYDRNSKFHVVELVLGEGISLIAFRIRNSRFYKYVPEKLISLYYRKFRWILEHHHHHH” here?
Answer: The value was “soluble”.

Question: For “MDASTHFRDRGALITGLMSGALDAVDAVARTRPAVEVLGLLVPVDGLMEDYLNGRAREGLGVTRSEFEPWRRQLLAVVAALLERWVGDDADLWRALAMRAGSYCGTVVELVDSVVRPEHADPASWAGRAPRWPRGVDASAVLLALAPPGIAEAFLDDCVTNAAAAGVLTRMLDRGPLHPLFVEYALGSLGTEAMRASLNRNPAYAIAQLRDQVLRERTDIAVLEHAYFAPPTDRALRVGLVRLAEAVGGFRPRFISRLESHAEDIASLEPLLVCSDPQLVHWVLRRVNATLKVPAMRWAAYATLALTAGPEPVWALEQERVGTLSRMAEPVRASMSTGSVAPILAAAGAAPVTIGPAGSAIELGAPLIEPWPYTELICEHVEGDGHRADPVDKPAADRPSSTRLGRSAEV”, which “soluble on expression in E. coli” value is on record?
Answer: Its value is “not soluble”.
